Results from patent publication US20230009582A1 (MEMO THERAPEUTICS, published 2023).

T1: Siglec-5-Fc (R&D systems) (UniProt O15389 17-434, limits assumed)
T1 construct: Bought reagent; not shown: Fc part of the bought fusion; not described
T1 sequence (looked up): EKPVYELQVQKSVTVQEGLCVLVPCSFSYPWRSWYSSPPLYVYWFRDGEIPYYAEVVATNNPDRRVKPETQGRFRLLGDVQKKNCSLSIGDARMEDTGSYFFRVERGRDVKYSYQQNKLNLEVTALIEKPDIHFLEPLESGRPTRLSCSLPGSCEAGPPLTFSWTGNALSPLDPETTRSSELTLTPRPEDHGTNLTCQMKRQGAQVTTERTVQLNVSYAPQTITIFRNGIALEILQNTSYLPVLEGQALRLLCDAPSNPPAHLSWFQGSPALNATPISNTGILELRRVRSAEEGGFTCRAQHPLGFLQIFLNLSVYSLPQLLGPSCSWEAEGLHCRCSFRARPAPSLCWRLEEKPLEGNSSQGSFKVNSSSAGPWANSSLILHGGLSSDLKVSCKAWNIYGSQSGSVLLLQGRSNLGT

T2: Siglec-15-Fc (R&D systems) (UniProt Q6ZMC9 20-263, limits assumed)
T2 construct: Bought reagent; not shown: Fc part of the bought fusion; not described
T2 sequence (looked up): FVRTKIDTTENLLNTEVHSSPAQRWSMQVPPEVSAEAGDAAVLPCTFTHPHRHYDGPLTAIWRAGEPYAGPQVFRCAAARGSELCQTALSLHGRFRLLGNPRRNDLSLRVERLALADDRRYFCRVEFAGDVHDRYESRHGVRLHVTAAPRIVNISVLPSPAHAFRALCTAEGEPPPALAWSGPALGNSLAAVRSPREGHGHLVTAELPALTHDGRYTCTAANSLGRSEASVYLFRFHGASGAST


How the values were obtained:
[1] = target: T3, Siglec-9-Fc (in-house production); test: ELISA, coated Siglec-9-Fc 1 µg/ml, antibody at 5 µg/ml (33 nM), Abs 450 nm, n=3
T3 construct: The entry holds the Siglec-9 part and the Fc together; also called Siglec-9-Fc protein
Procedure: (§1) Specificity towards Siglec-5, Siglec-7, Siglec-8, Siglec-15 and Siglec-9 was assayed in enzyme-linked immunosorbent assay (ELISA) using 96 well half-area ELISA plates (Corning). Siglec-5-Fc (R&D systems), Siglec-7-Fc (in-house production, Siglec-7-Fc protein used had the following amino acid sequence:
(§2) (SEQ ID NO: 59)) […] […] […] […] […] […] […] […] […] […] […] […], Siglec-8-Fc (R&D systems), Siglec-15- Fc (R&D systems) and Siglec-9-Fc (in-house production, SEQ ID NO: 11) were coated at 1 μg/ml in 50 mM carbonate-bicarbonate buffer pH 9.6 for 15-20 hours at 4° C.
(§3) Antigens were washed away (Tecan Hydrospeed) and plates were blocked with 5% skimmed milk in phosphate-buffered saline (PBS). After washing the plates, antibodies were added at 5 μg/ml (33 nM) in 0.5% milk PBS in triplicates. Plates with antibodies were incubated for 1 hour at room temperature. Plates were washed and bound antibodies were detected by horseradish peroxidase (HRP)-labeled polyclonal anti-rabbit IgG antibody (Biolegend) or anti-human Fab fragment for mAbA (Sigma Aldrich). 3,3′,5,5′-Tetramethylbenzidine (TMB; Sigma Aldrich) development was stopped by addition of sulfuric acid and absorbance was detected at 450 nm (Tecan, CM […] MONO 200).

[2] = target: T1, Siglec-5-Fc (R&D systems); test: ELISA, coated Siglec-5-Fc 1 µg/ml, single antibody concentration, Abs 450 nm, n=3
Procedure: as §1, §2, §3

[3] = target: T4, Siglec-9 expressed on cells (human, UniProt Q9Y336 18-463); test: flow cytometry on human CD14+ monocytes (PBMC), mean RFU of the secondary antibody, three-parameter fit
T4 construct: also called monocyte-expressed Siglec-9
Procedure: (§4) Human ex vivo PBMC were stained with fluorescence-labeled (allophycocyanin, APC) antibody to the monocyte marker CD14 (Biolegend) in assay buffer (0.5% (v/v) heat-inactivated fetal bovine serum (Gibco), 2 mM EDTA in phosphate-buffered saline). Subsequently, cells were incubated with antibodies under evaluation at various concentrations (67 nM-0.38 pM). After a washing step cells were incubated with fluorescence-labeled (Brilliant Violet 421™) secondary antibody against human IgG (mAbA) or rabbit IgG (all other monoclonal antibodies under evaluation; both secondary antibodies from Biolegend).
(§5) Binding of Siglec-9-specific antibodies to monocytes (CD14-positive life cells) was analysed with a CytoFLEX flow cytometer (Beckham Coulter's). The mean fluorescence intensity of the secondary antibody staining in the CD14-positive population at each dilution was determined using Flow Jo software (BD). Datapoints generated by this analysis were fitted and EC50 values were determined by three-parameter analysis in GraphPad Prism (GraphPad Software)

[4] = target: T5, Siglec-9 protein (construct not stated; antigen of Examples 3 and 4) (human, UniProt Q9Y336 18-348, limits assumed); test: SPR (Carterra LSA), antibody coupled to HC2000M chip, antigen at 20, 100 and 500 nM
Procedure: (§6) KD determination was performed by SPR by individually coating the antibodies to HC2000M chips via sulpho-NHS/EDC coupling chemistry. Chips were afterwards blocked with ethanolamine. Antigen was applied in one of the three different concentrations (20 nM, 100 nM and 500 nM) with a contact time of 240 s, followed by a dissociation phase of 120 s. After each antigen incubation, the bound antigen was removed from the antibodies with 10 mM glycine at pH 2.0. All kinetic parameters (kₒₙ, koff and KD) were determined using a kinetic fitting program (LSA Kinetics, Carterra).

[5] = target: T6, Siglec-8-Fc (R&D systems) (UniProt Q9NYZ4 17-363, limits assumed); test: ELISA, coated Siglec-8-Fc 1 µg/ml, single antibody concentration, Abs 450 nm, n=3
T6 construct: Bought reagent; not shown: Fc part of the bought fusion; not described
Procedure: as §1, §2, §3

[6] = target: T2, Siglec-15-Fc (R&D systems); test: ELISA, coated Siglec-15-Fc 1 µg/ml, single antibody concentration, Abs 450 nm, n=3
Procedure: as §1, §2, §3

[7] = target: T7, Siglec-7-Fc (in-house production); test: ELISA, coated Siglec-7-Fc 1 µg/ml, single antibody concentration, Abs 450 nm, n=3
T7 construct: The entry holds the Siglec-7 part and the Fc together; also called Siglec-7-Fc protein
Procedure: as §1, §2, §3

[8] = target: T5, Siglec-9 protein (construct not stated; …); test: ELISA, coated Siglec-9 1 µg/ml, antibody titrated, Abs 450 nm, three-parameter fit, n=3
Procedure: FIG. 2: Binding curves of monoclonal antibodies (68D4 and 224B1; comparative monoclonal antibodies mAbA and 5C6 & negative control 53C3) towards Siglec-9 as analysed by ELISA. Binding of the monoclonal antibody to Siglec-9, as determined by measurement of the accumulated coloured product at 450 nm after stopping the reaction, is plotted against the concentration of the monoclonal antibody under evaluation.
Antibody binding affinity towards Siglec-9 was measured by a dilution series of the analysed antibodies on a fixed concentration of Siglec-9 protein in ELISA. To this end, Siglec-9 was coated at 1 μg/ml in 50 mM carbonate-bicarbonate buffer pH 9.6 for 15-20 hours at 4° C. Antigen solution was washed away (Tecan Hydrospeed) and plates were blocked with 5% skimmed milk in phosphate-buffered saline (PBS) for 1 hour at room temperature. Plates were washed and antibodies were added at concentrations of 0-420 nM. After incubation at room temperature for 1 hour plates were washed once more. Bound antibodies were detected by addition of horseradish peroxidase (HRP)-coupled secondary antibodies. Rabbit antibodies were detected by polyclonal anti-rabbit IgG antibody (Biolegend), mAbA by anti-human Fab fragment (Sigma Aldrich). After a last washing step, plates were developed by the addition of 3,3′,5,5′-Tetramethylbenzidine (TMB; Sigma Aldrich). Reaction was stopped by addition of sulfuric acid. Absorbance was detected at 450 nm (Tecan, CM […] MONO 200). Data were fitted and EC50 values were determined by three-parameter analysis in GraphPad Prism (GraphPad Software)

[9] = target: T4, Siglec-9 expressed on cells; test: flow cytometry on human CD14+ monocytes in PBMC
Procedure: as §4, §5

[10] = target: T5, Siglec-9 protein (construct not stated; …); test: SPR (Carterra LSA), antibody coupled to HC2000M chip, antigen in solution
Procedure: as §6

[11] = target: T3, Siglec-9-Fc (in-house production); test: blocking assay: Calcein-AM labelled sialic acid-displaying A549 tumour cells binding to plate-captured Siglec-9-Fc, antibody titrated, n=3
Procedure: FIG. 4: Titration of monoclonal antibodies (68D4 and 224B1; comparative monoclonal antibodies mAbA and 5C6 & negative control 53C3) to determine blocking the binding of sialic acid-displaying A549 tumour cells to Siglec-9. Tumour cells were fluorescently-loaded with Calcein-AM in advance to the binding experiment and binding was determined by the released fluorescence upon cell lysis. Fluorescence released in the absence of antibody was set to 100% binding. Data was fitted by three-parameter analysis in GraphPad Prism (GraphPad Software); n=3.
To analyse if anti-Siglec-9 antibodies recognize the ligand-binding domain and block the binding of Siglec-9 to its ligands, sialic acids, we performed a cell-based assay where the binding of sialic-acid expressing A549 tumour cells to Siglec-9-Fc is evaluated in ELISA. ELISA-plates were coated with 3 μg/ml Protein-A (Thermo Fisher Scientific) overnight at 4° C. Plates were blocked with PBS, 1% BSA for 1 h, and incubated with 5 μg/ml Siglec-9-Fc for 1 h at RT. Anti-Siglec-9 antibodies at different concentrations (starting at 8 μg/ml or 53 nM); were mixed 1:1 with Calcein-AM (Thermo Fisher Scientific) labeled A549 tumour cells. The mixture was added to the ELISA plate and incubated for 1 h at 4° C. After washing of the plate, cells that were bound to the plate were lysed with PBS, 1% Triton-X 100 and released fluorescence was measured at an excitation of 485 nm and emission of 535 nm with a Synergy H1 (BioTek). Data were fitted by three-parameter analysis in GraphPad Prism (GraphPad Software).

[12] = target: extra-cellular domain of Siglec-9 fused to a C-terminal his-tag (Homo sapiens (Human), UniProt Q9Y336 18-348); test: ELISA, coated his-tagged Siglec-9 extracellular domain, anti-human Fc gamma detection, Abs 450 nm
Excerpt: (SEQ ID NO: 44) […] […] […] […] […] […] […]. For detection of bound IgG either polyclonal anti- rabbit IgG antibody (68D4; Biolegend, #406401), or anti-human Fey fragment (humanized 68D4 and mAbA; Jackson Immuno Research laboratories, #109-035-098) were used.

T4 sequence (Q9Y336 18-463 limits assumed): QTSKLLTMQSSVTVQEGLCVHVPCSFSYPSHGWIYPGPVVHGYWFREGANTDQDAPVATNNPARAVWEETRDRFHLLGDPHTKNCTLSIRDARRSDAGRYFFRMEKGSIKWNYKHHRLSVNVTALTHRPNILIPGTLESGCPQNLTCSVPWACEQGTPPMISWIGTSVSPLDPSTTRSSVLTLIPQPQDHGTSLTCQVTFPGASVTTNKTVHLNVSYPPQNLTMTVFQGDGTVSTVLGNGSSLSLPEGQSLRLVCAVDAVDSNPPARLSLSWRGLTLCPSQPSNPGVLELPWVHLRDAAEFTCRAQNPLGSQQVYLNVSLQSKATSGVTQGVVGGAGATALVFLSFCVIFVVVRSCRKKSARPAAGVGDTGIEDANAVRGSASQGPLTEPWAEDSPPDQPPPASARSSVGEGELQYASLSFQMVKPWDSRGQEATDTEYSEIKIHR
T5 sequence (Q9Y336 18-348 limits assumed): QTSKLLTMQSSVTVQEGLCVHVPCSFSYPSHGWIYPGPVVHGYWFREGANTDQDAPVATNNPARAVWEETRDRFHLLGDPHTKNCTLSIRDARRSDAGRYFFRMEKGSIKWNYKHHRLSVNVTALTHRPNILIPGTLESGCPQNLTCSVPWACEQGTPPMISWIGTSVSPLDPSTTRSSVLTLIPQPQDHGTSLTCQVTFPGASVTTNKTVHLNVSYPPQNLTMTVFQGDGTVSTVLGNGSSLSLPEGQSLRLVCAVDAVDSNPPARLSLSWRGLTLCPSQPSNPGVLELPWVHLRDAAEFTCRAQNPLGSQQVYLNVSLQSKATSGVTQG
T3 sequence (chain, as listed by the source limits assumed): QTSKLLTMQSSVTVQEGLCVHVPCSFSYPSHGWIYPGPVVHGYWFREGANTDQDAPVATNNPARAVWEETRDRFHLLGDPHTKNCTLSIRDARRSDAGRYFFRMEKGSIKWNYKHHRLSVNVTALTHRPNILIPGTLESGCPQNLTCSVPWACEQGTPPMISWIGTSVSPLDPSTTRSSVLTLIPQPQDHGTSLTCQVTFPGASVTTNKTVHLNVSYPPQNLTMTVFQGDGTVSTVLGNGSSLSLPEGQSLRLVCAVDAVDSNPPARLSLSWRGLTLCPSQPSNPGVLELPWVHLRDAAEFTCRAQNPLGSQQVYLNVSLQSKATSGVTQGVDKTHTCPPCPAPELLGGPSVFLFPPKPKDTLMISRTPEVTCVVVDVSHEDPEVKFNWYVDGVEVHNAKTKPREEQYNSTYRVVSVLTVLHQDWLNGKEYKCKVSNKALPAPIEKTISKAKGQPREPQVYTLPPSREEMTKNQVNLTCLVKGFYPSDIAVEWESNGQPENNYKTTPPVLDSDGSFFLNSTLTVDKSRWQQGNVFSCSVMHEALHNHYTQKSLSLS
T6 sequence (Q9NYZ4 17-363 limits assumed): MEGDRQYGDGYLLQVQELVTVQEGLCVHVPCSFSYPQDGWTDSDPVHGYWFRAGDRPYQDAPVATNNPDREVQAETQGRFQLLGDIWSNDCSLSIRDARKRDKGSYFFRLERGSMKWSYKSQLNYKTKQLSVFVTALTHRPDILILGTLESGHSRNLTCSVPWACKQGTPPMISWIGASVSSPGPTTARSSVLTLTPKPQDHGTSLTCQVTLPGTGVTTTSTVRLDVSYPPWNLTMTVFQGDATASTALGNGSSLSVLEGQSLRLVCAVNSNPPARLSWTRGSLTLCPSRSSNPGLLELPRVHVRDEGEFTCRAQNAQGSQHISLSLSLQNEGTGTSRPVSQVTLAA
T7 sequence (chain, as listed by the source limits assumed): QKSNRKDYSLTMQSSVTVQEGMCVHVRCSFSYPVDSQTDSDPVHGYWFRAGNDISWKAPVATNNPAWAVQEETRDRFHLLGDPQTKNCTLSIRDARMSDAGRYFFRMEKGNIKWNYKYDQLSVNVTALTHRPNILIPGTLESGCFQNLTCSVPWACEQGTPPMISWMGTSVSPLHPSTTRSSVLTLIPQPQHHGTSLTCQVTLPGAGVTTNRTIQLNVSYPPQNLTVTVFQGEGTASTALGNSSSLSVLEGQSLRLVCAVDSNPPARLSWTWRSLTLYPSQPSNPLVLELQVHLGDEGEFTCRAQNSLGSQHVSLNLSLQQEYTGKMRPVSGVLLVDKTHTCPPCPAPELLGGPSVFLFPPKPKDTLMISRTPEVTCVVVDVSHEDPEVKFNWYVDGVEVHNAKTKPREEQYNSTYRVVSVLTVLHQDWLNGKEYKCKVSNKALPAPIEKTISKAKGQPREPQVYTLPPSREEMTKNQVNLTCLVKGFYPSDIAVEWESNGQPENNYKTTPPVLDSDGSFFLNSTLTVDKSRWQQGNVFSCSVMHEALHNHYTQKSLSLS
Sequence of extra-cellular domain of Siglec-9 fused to a C-terminal his-tag (Q9Y336 18-348 limits assumed): as the sequence (Q9Y336 18-348 limits assumed) above

| Binder | binding result [1] | binding result [2] | EC50 [3] [nM] | Kd [4] [nM] | koff [4] [s⁻¹] | kon [4] [M⁻¹ s⁻¹] | binding result [5] | binding result [6] | binding result [7] | EC50 [8] [nM] | fold stronger avidity than mAbA [9] [fold] | fold stronger binding than 5C6 [9] [fold] | fold better dissociation constant than mAbA [10] [fold] | binding result [11] | EC50 (read off the curve) [12] [nM] |
| --- | --- | --- | --- | --- | --- | --- | --- | --- | --- | --- | --- | --- | --- | --- | --- |
| monoclonal antibody 68D4 (rabbit) (antibody, V domains shown, also called rb 68D4; rabbit 68D4) VH: QSLEESGGRLVKPDETLTITCTVSGIDLSSYDMTWVRQAPGKGLEWIGIIYTGGLTYYASWAKGRFTISKTSTTVDLKITSPTTEDTATYFCAREVGDNNNFWGPGTLVTVSS VL: DVVMTQTPASVSEPVGGTVTIKCQASESVDSGLAWYHQKPGQPPKLLIYDDTDLASGVPSRFKGSRSGTAHTLTISDLECADAATYYCQYTDYGRTYVGTFGGGTEVVIKG | binds | no binding (tested: 5 µg/ml) | 0.19 | 0.15 | 9.6e-05 | 640000 | no binding (tested: 5 µg/ml) | no binding (tested: 5 µg/ml) | no binding (tested: 5 µg/ml) | 0.05 | ~3 | ~22 | ~16.7 | – | – |
| comparative monoclonal antibody 5C6 (WO 2017/075432), mouse-rabbit chimera (antibody, V domains shown) VH: EVQLQQSGPELVKPGASVRISCKASGYTFTDYNIHWVKQSQGKSLEWIGYIYPYNGDTGYNQKFQNKATLTVDNSSSTAYMELRSLTSEDSAVYYCANGNYLYYYAMDYWGQGTSVTVSS VL: DVVMTQTPLSLPVSLGDQVSISCSSSQSLVHSNGNTYLHWYLQKSGQSPKLLIYKVSNRFSGVPDRFRGSGSGTDFTLKISRVEAEDLGVYFCSQNTHVPLTFGAGTKLELKG | – | no binding (tested: 5 µg/ml) | 4.18 | – | – | – | no binding (tested: 5 µg/ml) | no binding (tested: 5 µg/ml) | no binding (tested: 5 µg/ml) | 0.34 | – | – | – | binds | – |
| humanized anti-Siglec-9 antibody 68D4 (68D4-hum) (antibody, human IgG1, kappa, V domains shown, Human IgG1/kappa, expressed in HEK293F cells; also called humanized 68D4) VH: EVQLVESGGGLVQPGGSLRISCAASGIDLSSYDMTWVRQAPGKGLEWVSIIYTGGLTYYADSVKGRFTISRDNSKNTVYLQMNSLRAEDTAVYYCAREVGDNNNFWGQGTLVTVSS VL: DIVMTQSPSSVSASVGDRVTITCRASESVSSGLAWYQQKPGKAPKLLVYDDTDLASGVPSRFSGSGSGTEFTLTISSLQPDDFATFYCQYTDYGRTYVGTFGGGTKVEIKR | – | – | – | – | – | – | – | – | – | – | – | – | – | – | ~0.06 |
